pKd: −log10 of the molar value. Like-named read-outs stand apart in the source and are kept apart here.

Assay in all cases: MST
The target of experiment [1] is α-actinin-2 wild-type, full length (human) (UniProt P35609).
Experiment [2] shares this target. The source holds these as a separate data set.
For experiment [3], the target named is α-actinin-2 calmodulin-like domain (CAMD, EF1-4) (human).
Sequence of α-actinin-2 calmodulin-like domain (CAMD, EF1-4) (human) (P35609 whole entry, the tested form may be a part): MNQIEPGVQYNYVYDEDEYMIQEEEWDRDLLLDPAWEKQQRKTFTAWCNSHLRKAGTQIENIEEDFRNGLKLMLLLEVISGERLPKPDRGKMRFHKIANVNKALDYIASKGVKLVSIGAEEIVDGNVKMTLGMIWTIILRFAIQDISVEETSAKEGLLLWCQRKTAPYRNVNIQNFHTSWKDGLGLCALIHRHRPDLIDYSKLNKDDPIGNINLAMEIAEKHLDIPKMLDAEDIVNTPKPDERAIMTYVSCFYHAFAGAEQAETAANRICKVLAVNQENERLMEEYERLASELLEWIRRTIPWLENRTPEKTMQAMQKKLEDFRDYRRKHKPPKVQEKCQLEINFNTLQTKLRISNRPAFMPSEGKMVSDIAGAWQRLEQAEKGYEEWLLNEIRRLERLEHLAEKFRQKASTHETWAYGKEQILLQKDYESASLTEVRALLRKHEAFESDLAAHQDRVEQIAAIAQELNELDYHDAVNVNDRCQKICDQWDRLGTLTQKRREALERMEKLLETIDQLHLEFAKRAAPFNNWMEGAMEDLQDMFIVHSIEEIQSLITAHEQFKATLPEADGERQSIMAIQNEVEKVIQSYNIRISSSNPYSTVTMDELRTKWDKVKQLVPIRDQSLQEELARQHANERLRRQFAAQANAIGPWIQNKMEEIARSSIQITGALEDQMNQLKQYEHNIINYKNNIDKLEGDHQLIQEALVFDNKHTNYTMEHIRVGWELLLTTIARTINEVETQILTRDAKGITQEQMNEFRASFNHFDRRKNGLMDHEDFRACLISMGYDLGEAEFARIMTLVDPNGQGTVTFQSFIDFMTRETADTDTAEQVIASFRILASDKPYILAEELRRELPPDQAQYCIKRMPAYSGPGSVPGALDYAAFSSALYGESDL

Sequence of α-actinin-2 wild-type, full length (human) (P35609 whole entry): as the sequence (P35609 whole entry, the tested form may be a part) above
Sequence of titin Zr-7 construct (amino acids Lys 692 - Arg 740) (Q8WZ42 692-740): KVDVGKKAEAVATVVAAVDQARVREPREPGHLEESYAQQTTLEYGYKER

As usually defined, the pKd is the negative decadic logarithm of the Kd, by convention in mol/L. For “titin Zr-7 construct (amino acids Lys 692 - Arg 740) (from UniProt Q8WZ42 692-740) (domain or fragment)”, the pKd in experiment [1] was 6.42; in experiment [2], 5.54; in experiment [3], 6.62.

Source of the values: article PMC4259493.
